Reference: patent US20230322893A1, “CD47 BINDER AND LIPOSOME COMPLEX FOR CANCER TREATMENT” (priority 2020, published 2023)

Molecular target: recombinant CD47 protein (Homo sapiens, UniProt Q08722)
Experiment: SPR, CD47 conjugated to CM5 chip by EDC-NHS
Format: binding
Settings: CM5 chip, CD47 250 RU, 30 µL/minutes
Experimental: Specifically, the recombinant CD47 protein was conjugated to the surface of the CM5 chip by a target SPR reaction of 250 RU through an EDC-NHS reaction to be used, and for HBS-P, the sensogram obtained through a process of association for 3 minutes and dissociation for 10 minutes at a flow rate of 30 µL/minutes was analyzed with the BiaEvaluation software using a 1:1 binding model and global fitting.

Chain of recombinant CD47 protein (Q08722 19-323): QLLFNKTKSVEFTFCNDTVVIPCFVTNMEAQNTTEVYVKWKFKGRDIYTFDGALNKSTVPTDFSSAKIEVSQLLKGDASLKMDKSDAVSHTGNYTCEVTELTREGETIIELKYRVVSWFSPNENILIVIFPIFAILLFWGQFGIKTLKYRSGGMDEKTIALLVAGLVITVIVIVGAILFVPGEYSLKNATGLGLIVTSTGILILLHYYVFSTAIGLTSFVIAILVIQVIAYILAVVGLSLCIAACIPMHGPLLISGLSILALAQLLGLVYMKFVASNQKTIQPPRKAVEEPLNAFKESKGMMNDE

Substance: Sirpα: pure Sirpα (SEQ ID NO: 25), water-soluble domain of the original CD47 ligand [reference compound]
- ka: 610000 M⁻¹ s⁻¹
- kd: 0.37 s⁻¹
